# T1: FLAG-hnRNP LL (UniProt Q8WVV9 1-542)
# T1 sequence: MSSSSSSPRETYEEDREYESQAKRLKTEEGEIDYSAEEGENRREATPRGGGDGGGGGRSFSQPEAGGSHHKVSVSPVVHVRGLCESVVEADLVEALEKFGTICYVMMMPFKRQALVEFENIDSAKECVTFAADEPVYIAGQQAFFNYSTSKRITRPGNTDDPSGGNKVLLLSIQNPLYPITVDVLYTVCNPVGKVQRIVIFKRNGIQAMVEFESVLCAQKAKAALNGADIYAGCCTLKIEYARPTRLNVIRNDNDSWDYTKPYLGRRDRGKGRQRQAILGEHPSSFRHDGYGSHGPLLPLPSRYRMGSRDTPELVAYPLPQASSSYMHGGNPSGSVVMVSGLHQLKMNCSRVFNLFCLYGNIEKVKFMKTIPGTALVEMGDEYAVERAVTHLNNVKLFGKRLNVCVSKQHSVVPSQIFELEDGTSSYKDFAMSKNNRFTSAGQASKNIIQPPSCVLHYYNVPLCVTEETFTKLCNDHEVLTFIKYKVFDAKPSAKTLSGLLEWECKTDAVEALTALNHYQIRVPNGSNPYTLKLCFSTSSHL
# T2: GST-hnRNP L (UniProt P14866 1-589)
# T2 sequence: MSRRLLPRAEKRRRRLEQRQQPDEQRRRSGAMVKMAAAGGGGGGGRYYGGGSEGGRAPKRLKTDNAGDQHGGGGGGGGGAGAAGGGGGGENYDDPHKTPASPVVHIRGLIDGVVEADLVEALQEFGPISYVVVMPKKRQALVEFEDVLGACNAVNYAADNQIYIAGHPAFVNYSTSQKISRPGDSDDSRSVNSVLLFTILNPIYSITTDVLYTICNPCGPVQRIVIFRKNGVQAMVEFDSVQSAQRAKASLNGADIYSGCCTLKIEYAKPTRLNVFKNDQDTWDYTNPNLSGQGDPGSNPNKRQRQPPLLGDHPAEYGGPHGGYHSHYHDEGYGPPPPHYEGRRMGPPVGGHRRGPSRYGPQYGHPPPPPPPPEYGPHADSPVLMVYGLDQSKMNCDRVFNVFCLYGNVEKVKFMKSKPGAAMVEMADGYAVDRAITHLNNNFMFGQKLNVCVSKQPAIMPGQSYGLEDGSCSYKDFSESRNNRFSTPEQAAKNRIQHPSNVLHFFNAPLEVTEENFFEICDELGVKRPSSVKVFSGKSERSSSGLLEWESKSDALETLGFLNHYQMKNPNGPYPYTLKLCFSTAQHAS
# B1: CAcCA (N=1) (ssRNA)
# RNA: GAUCCUCACCACCAUAGAUCUUCACCACCAUAGAUCUUCACCACCAUAGAUCUUCACCACCAUAGAUCU
# B2: CAuaCA (N=2) (ssRNA)
# RNA: GAUCCUACAUACAUAGAUCUUACAUACAUAGAUCUUACAUACAUAGAUCUUACAUACAUAGAUCU
# B3: CACACA x4 (N=2 ca spacer) (ssRNA)
# RNA: GAUCCUUCACACAUUAGAUCUUUCACACAUUAGAUCUUUCACACAUUAGAUCUUUCACACAUUAGAUCU
# B4: CA spacer N=3 (ssRNA)
# RNA: GAUCCUACAUUACAUAGAUCUUACAUUACAUAGAUCUUACAUUACAUAGAUCUUACAUUACAUAGAUCU
# B5: CAccCA (ssRNA)
# RNA: GAUCCCCCACCCAAGAUCUCCCACCCAAGAUCUCCCACCCAAGAUCUCCCACCCAAGAUCU
# Assays:
# Test in all cases: EMSA; EMSA: ~1 fmol 32P RNA (0.1 nM), 4.5% native PAGE; binding buffer as in cited ref 9, not given; BC50 values printed only in figures
# FLAG-hnRNP LL [1] = target: T1, FLAG-hnRNP LL; conditions: protein: recombinant; tags: N-terminal FLAG; label: 32P-CTP body label
# GST-hnRNP L [2] = target: T2, GST-hnRNP L; conditions: protein: recombinant; label: 32P-CTP body label
# FLAG-hnRNP LL [3] = target: T1, FLAG-hnRNP LL; conditions: protein: recombinant; tags: N-terminal FLAG; label: 32P-CTP body label; remark: listed apart in the source
# FLAG-hnRNP LL [4] = target: T1, FLAG-hnRNP LL; conditions: protein: recombinant; tags: N-terminal FLAG; label: 32P-CTP body label; remark: listed apart in the source
# GST-hnRNP L [5] = target: T2, GST-hnRNP L; conditions: protein: recombinant; label: 32P-CTP body label; remark: listed apart in the source
# FLAG-hnRNP LL [6] = target: T1, FLAG-hnRNP LL; conditions: protein: recombinant; tags: N-terminal FLAG; label: 32P-CTP body label; remark: listed apart in the source
# GST-hnRNP L [7] = target: T2, GST-hnRNP L; conditions: protein: recombinant; label: 32P-CTP body label; remark: listed apart in the source
Binder,binding result (GST-hnRNP L [2]),binding result (FLAG-hnRNP LL [3]),binding signal (GST-hnRNP L [5]) [fold weaker than ESS1],also measured
B1,binds,,,binding signal (FLAG-hnRNP LL [1]): > 4 fold weaker than CACACA (at least)
B2,binds,binds,,
CUUACCUACUCACACCACUGCAUUCUCACCCGCAAGCACC (ssRNA) [ESS1 wild type],,,,Kd (FLAG-hnRNP LL [3]): ~2 nM; Kd (GST-hnRNP L [2]): ~2 nM
CUUACCUACUCACACCACUGCAUUCUCACCCGGAAGCACC (ssRNA) [ESS1 CA6 mutant (CA to GA)],,,~10,binding signal (FLAG-hnRNP LL [4]): > 5 fold weaker than ESS1
CUUACCUACUCACACCACUGCAUUCUGACCCGCAAGCACC (ssRNA) [ESS1 CA5 mutant (CA to GA)],,binds,,
CUUACCUACUCACACCACUGGAUUCUCACCCGCAAGCACC (ssRNA) [ESS1 CA4 mutant (CA to GA)],,binds,~2,
CUUACCUACUCACACGACUGCAUUCUCACCCGCAAGCACC (ssRNA) [ESS1 CA3 mutant (CA to GA)],,binds,~4,
CUUACCUACUCACACCACUGCAUUCUCACCCGCAAGUACC (ssRNA) [ESS1 CA7 mutant (CA to TA)],binds,,,binding signal (FLAG-hnRNP LL [4]): > 5 fold weaker than ESS1
CUUACCUACUCAGACCACUGCAUUCUCACCCGCAAGCACC (ssRNA) [ESS1 CA2 mutant (CA to GA)],,binds,~2,
CUUACCUACUUACACCACUGCAUUCUCACCCGCAAGCACC (ssRNA) [ESS1 CA1 mutant (CA to TA)],,binds,,
B3,binds,binds,,
B4,binds,,,
B5,,,,binding signal (FLAG-hnRNP LL [6]): 5 fold weaker than CACACA; binding signal (GST-hnRNP L [7]): 15 fold weaker than CACACA

# — paper PMC3823766, “Paralogs hnRNP L and hnRNP LL Exhibit Overlapping but Distinct RNA Binding Constraints”
